Laboratory results from IntAct's records for PubMed 21930971.

B1: Complement factor H (Homo sapiens), P08603-2 (parent)
chain: MRLLAKIICLMLWAICVAEDCNELPPRRNTEILTGSWSDQTYPEGTQAIYKCRPGYRSLGNVIMVCRKGEWVALNPLRKCQKRPCGHPGDTPFGTFTLTGGNVFEYGVKAVYTCNEGYQLLGEINYRECDTDGWTNDIPICEVVKCLPVTAPENGKIVSSAMEPDREYHFGQAVRFVCNSGYKIEGDEEMHCSDDGFWSKEKPKCVEISCKSPDVINGSPISQKIIYKENERFQYKCNMGYEYSERGDAVCTESGWRPLPSCEEKSCDNPYIPNGDYSPLRIKHRTGDEITYQCRNGFYPATRGNTAKCTSTGWIPAPRCTLKPCDYPDIKHGGLYHENMRRPYFPVAVGKYYSYYCDEHFETPSGSYWDHIHCTQDGWSPAVPCLRKCYFPYLENGYNQNYGRKFVQGKSIDVACHPGYALPKAQTTVTCMENGWSPTPRCIRVSFTL
partner: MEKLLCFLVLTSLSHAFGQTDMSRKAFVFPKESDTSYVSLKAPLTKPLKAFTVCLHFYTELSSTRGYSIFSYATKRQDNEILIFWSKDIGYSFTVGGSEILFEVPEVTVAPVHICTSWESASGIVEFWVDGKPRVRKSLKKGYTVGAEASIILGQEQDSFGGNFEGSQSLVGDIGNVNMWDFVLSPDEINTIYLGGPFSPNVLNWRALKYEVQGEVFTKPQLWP
B2: Complement factor H (Homo sapiens), P08603-1 (parent)
chain: MRLLAKIICLMLWAICVAEDCNELPPRRNTEILTGSWSDQTYPEGTQAIYKCRPGYRSLGNVIMVCRKGEWVALNPLRKCQKRPCGHPGDTPFGTFTLTGGNVFEYGVKAVYTCNEGYQLLGEINYRECDTDGWTNDIPICEVVKCLPVTAPENGKIVSSAMEPDREYHFGQAVRFVCNSGYKIEGDEEMHCSDDGFWSKEKPKCVEISCKSPDVINGSPISQKIIYKENERFQYKCNMGYEYSERGDAVCTESGWRPLPSCEEKSCDNPYIPNGDYSPLRIKHRTGDEITYQCRNGFYPATRGNTAKCTSTGWIPAPRCTLKPCDYPDIKHGGLYHENMRRPYFPVAVGKYYSYYCDEHFETPSGSYWDHIHCTQDGWSPAVPCLRKCYFPYLENGYNQNYGRKFVQGKSIDVACHPGYALPKAQTTVTCMENGWSPTPRCIRVKTCSKSSIDIENGFISESQYTYALKEKAKYQCKLGYVTADGETSGSITCGKDGWSAQPTCIKSCDIPVFMNARTKNDFTWFKLNDTLDYECHDGYESNTGSTTGSIVCGYNGWSDLPICYERECELPKIDVHLVPDRKKDQYKVGEVLKFSCKPGFTIVGPNSVQCYHFGLSPDLPICKEQVQSCGPPPELLNGNVKEKTKEEYGHSEVVEYYCNPRFLMKGPNKIQCVDGEWTTLPVCIVEESTCGDIPELEHGWAQLSSPPYYYGDSVEFNCSESFTMIGHRSITCIHGVWTQLPQCVAIDKLKKCKSSNLIILEEHLKNKKEFDHNSNIRYRCRGKEGWIHTVCINGRWDPEVNCSMAQIQLCPPPPQIPNSHNMTTTLNYRDGEKVSVLCQENYLIQEGEEITCKDGRWQSIPLCVEKIPCSQPPQIEHGTINSSRSSQESYAHGTKLSYTCEGGFRISEENETTCYMGKWSSPPQCEGLPCKSPPEISHGVVAHMSDSYQYGEEVTYKCFEGFGIDGPAIAKCLGEKWSHPPSCIKTDCLSLPSFENAIPMGEKKDVYKAGEQVTYTCATYYKMDGASNVTCINSRWTGRPTCRDTSCVNPPTVQNAYIVSRQMSKYPSGERVRYQCRSPYEMFGDEEVMCLNGNWTEPPQCKDSTGKCGPPPPIDNGDITSFPLSVYAPASSVEYQCQNLYQLEGNKRITCRNGQWSEPPKCLHPCVISREIMENYNIALRWTAKQKLYSRTGESVEFVCKRGYRLSSRSHTLRTTCWDGKLEYPTCAKR
partner: B1 partner

Variants of: B1
Conditions: with crp_human CRP

effect of a mutation on the interaction	Variant
decreasing interaction strength	Y402H

Variants of: B2
Conditions: with crp_human CRP

effect of a mutation on the interaction	Variant
decreasing interaction strength	Y402H
